Biological target: recombinant enovin (mature human enovin with NH2-terminal 6xHis tag, expressed from hEVNmat/pRSETB in E. coli) (human)
Experiment: SPR (BIAcore 3000), enovin immobilized, soluble GFRα3-Fc at three concentrations

Kd: 3.1 nM
koff: 0.000508 s⁻¹
kon: 165000 M⁻¹ s⁻¹
B1: soluble GFRα-3 IgG1-Fc fusion protein (Fc fusion, UniProt O60609 28-371, looked up, not shown: a dimerising Fc or GST)
chain: LAAGDPLPTESRLMNSCLQARRKCQADPTCSAAYHHLDSCTSSISTPLPSEEPSVPADCLEAAQQLRNSSLIGCMCHRRMKNQVACLDIYWTVHRARSLGNYELDVSPYEDTVTSKPWKMNLSKLNMLKPDSDLCLKFAMLCTLNDKCDRLRKAYGEACSGPHCQRHVCLRQLLTFFEKAAEPHAQGLLLCPCAPNDRGCGERRRNTIAPNCALPPVAPNCLELRRLCFSDPLCRSRLVDFQTHCHPMDILGTCATEQSRCLRAYLGLIGTAMTPNFVSNVNTSVALSCTCRGSGNLQEECEMLEGFFSHNPCLTEAIAAKMRFHSQLFSQDWPHPTFAVMAHQ

Source: patent US20140162951A1
